Reference: article PMC4591219 (Cell reports, 2015)

Legend:
[1] = biological target: T1, Pot1-F520A (Schizosaccharomyces pombe, UniProt O13988 1-555, F520A); test: EMSA
T1 sequence: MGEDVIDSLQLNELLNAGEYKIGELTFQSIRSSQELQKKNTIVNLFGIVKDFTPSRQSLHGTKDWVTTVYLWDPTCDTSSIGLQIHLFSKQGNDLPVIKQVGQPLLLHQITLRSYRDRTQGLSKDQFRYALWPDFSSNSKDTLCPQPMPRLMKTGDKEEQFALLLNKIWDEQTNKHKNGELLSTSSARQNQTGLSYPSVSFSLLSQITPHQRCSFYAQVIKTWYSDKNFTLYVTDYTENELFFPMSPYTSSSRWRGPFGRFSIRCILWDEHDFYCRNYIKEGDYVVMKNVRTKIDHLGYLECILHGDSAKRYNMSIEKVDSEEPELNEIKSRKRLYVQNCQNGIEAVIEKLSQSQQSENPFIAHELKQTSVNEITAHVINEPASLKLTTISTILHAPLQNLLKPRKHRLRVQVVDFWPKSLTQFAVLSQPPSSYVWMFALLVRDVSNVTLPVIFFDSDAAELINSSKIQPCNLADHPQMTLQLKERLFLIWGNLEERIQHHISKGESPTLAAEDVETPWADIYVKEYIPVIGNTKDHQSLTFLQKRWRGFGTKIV

[2] = biological target: T2, Pot1-I453R (Schizosaccharomyces pombe, UniProt O13988 1-555, I453R); test: EMSA
T2 sequence: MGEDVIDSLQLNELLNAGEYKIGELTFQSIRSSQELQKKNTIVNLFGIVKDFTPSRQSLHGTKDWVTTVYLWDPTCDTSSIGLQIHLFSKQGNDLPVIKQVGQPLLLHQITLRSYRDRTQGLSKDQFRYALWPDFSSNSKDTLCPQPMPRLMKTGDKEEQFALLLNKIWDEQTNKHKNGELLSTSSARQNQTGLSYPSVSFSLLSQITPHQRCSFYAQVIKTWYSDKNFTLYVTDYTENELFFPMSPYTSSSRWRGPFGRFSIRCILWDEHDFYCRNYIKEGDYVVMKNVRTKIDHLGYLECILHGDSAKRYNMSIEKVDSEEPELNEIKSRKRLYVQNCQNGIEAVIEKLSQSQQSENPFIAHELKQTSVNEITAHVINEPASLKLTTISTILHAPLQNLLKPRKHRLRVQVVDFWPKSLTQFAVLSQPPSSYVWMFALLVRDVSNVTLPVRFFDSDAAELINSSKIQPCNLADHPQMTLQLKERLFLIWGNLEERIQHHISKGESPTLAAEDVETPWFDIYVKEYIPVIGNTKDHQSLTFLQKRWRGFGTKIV

[3] = biological target: T3, Pot1 (wild type, recombinant, GST pull-down) (S. pombe, UniProt O13988 1-555); test: pull-down
T3 sequence: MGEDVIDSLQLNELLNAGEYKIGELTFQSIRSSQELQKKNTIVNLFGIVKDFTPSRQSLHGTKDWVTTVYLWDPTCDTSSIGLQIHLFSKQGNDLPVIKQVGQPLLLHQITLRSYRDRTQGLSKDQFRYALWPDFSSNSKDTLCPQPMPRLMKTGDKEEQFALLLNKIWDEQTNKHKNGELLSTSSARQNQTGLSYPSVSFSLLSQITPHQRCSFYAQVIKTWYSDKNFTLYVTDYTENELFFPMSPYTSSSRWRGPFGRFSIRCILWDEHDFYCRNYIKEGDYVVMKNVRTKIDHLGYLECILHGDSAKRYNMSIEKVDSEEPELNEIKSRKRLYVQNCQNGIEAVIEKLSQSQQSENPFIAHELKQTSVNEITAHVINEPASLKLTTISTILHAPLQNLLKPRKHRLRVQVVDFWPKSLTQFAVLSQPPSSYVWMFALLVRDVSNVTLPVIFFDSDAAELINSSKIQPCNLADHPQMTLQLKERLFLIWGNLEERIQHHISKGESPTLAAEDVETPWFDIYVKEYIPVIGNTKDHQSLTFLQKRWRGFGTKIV

[4] = biological target: T4, full-length Poz1 (in the purified Poz1-Tpz1 complex) (S. pombe, UniProt O13852 1-249); test: cross-linking
T4 sequence: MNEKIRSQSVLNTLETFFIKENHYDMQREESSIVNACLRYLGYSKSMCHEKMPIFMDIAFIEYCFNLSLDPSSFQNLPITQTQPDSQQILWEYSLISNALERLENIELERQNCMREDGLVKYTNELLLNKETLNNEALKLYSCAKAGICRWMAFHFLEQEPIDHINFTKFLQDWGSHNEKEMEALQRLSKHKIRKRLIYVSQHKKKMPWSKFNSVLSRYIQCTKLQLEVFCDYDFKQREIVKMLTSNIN

[5] = biological target: T5, Poz1 (wild type, recombinant, GST pull-down) (S. pombe, UniProt O13852 1-249); test: pull-down
T5 sequence: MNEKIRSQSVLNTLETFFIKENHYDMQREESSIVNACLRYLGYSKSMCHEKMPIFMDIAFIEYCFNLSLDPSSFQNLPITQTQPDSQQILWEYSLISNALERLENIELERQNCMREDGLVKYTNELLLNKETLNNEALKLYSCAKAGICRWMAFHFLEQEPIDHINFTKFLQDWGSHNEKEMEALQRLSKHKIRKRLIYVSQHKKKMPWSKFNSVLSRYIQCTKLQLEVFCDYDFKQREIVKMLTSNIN

[6] = biological target: T6, Poz1-W174R (recombinant) (S. pombe, UniProt O13852 1-249, W174R); test: pull-down
T6 sequence: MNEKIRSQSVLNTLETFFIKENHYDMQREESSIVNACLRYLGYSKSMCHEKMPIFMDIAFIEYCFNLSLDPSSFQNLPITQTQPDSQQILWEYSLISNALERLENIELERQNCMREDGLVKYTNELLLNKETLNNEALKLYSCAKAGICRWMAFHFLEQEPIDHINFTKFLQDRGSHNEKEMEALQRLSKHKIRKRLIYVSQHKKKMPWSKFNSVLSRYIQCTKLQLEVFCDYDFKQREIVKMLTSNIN

[7] = biological target: T7, Poz1-W209A (recombinant) (S. pombe, UniProt O13852 1-249, W209A); test: pull-down
T7 sequence: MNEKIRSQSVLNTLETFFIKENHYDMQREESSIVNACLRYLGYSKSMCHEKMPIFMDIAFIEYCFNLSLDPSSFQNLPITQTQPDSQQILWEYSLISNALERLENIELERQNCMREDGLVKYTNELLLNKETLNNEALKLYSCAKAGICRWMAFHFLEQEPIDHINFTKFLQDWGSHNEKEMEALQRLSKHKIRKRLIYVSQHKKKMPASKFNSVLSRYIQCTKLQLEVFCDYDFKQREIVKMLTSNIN

[8] = biological target: T8, full-length Pot1 (in the purified Pot1–Tpz1-NTD complex) (S. pombe, UniProt O13988 1-555); test: cross-linking
T8 sequence: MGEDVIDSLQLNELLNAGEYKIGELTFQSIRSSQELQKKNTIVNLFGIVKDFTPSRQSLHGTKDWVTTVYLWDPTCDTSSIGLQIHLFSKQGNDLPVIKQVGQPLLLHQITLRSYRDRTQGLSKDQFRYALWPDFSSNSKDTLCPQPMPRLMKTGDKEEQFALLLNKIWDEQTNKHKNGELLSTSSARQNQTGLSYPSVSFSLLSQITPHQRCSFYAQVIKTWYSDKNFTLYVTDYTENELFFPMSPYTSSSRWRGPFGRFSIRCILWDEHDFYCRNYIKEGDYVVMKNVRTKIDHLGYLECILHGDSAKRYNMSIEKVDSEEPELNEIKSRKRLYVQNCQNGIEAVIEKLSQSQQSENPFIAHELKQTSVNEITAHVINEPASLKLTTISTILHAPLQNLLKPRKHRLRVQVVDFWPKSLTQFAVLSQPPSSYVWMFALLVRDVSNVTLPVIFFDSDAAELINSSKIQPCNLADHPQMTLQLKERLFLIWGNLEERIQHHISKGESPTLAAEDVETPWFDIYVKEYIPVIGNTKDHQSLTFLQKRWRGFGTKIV

[9] = biological target: T9, Ccq1 (130–439) (S. pombe, UniProt Q10432 130-439); test: cross-linking
T9 sequence: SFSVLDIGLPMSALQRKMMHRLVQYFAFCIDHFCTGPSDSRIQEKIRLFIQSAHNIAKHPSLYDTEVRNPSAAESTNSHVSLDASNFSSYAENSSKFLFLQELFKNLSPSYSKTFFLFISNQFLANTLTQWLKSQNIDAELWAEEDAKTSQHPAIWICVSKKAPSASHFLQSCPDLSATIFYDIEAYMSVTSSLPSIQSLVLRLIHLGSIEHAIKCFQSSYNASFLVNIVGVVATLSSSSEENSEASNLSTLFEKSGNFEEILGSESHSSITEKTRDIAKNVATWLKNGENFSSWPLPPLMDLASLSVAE

Which results are given for GTTACGGTTACAGGTTACG (ssDNA) [telomeric ssDNA 19-mer]?
binding result [1]: binds; binding result [2]: binds

B1: GST-Tpz1-NTD (2–234) (domain or fragment)
chain: SNCLKHPWLENGLLNLIKNADVLPIRVFKCQPLQIFEYIRYEHPIRCKLSDTEFYIEAEFSSQSISDLNNFTEKRITSLRGGIVTLGNFLIHLIPSQSGIIPWIQVESFNFQGCEGAVFGNPKAITTSALFNALLQSPYLAALANEFNRSIKEGSSYQEASLSQQEKPNDNTSNSRDIKNNIQFHWKNMTSLSIEECIIPKGQQLILEKESEENTTHGIYLEERKMAQGLHNS
Does B1 bind [3]?
Result: binds

B2: Tpz1 (406–508) (in the purified Poz1-Tpz1 complex) (domain or fragment)
chain: SSVISCTPPAINFTSDICNEQIELEYKRKPIPDYDFMKGLETTLQELYVEHQSKKRRLELFQLTNNHQKNSEACEMCRLGLPHGSFFELLRDWKKIEEFRNKS
Does B2 bind [4]?
Result: binds

B3: GST-Tpz1-CTD (406–508) (domain or fragment)
chain: SSVISCTPPAINFTSDICNEQIELEYKRKPIPDYDFMKGLETTLQELYVEHQSKKRRLELFQLTNNHQKNSEACEMCRLGLPHGSFFELLRDWKKIEEFRNKS
Does B3 bind [5]?
Result: binds

Does B3 bind [6]?
Result: binds

Does B3 bind [7]?
Result: binds

B4: Tpz1-NTD (1–234) (in the purified Pot1–Tpz1-NTD complex) (domain or fragment)
chain: MSNCLKHPWLENGLLNLIKNADVLPIRVFKCQPLQIFEYIRYEHPIRCKLSDTEFYIEAEFSSQSISDLNNFTEKRITSLRGGIVTLGNFLIHLIPSQSGIIPWIQVESFNFQGCEGAVFGNPKAITTSALFNALLQSPYLAALANEFNRSIKEGSSYQEASLSQQEKPNDNTSNSRDIKNNIQFHWKNMTSLSIEECIIPKGQQLILEKESEENTTHGIYLEERKMAQGLHNS
Does B4 bind [8]?
Result: binds

Does AINFTSDICNEQIELEYKRKPIPDYDFMKGLETTLQELYVEHQS (domain or fragment) [Tpz1 (415–458)] bind [9]?
Result: binds
